Results: publication PMC12379375

Biological target: recombinant CgDM9CP-6 (DM9 domain containing protein 6 of Crassostrea gigas), His tag (Crassostrea gigas)
Test: BLI

Kd: 3.81 µM
Substance: recombinant Cg14-3-3ε (14-3-3 epsilon of Crassostrea gigas), GST tag (natural protein)
